Experimental data reported in publication PMC9599842 (2022).

How the values were obtained:
HcAb.RR359.D107A = assay: BLI
HcAb.RR359.L110A = assay: BLI

B1: mEGFR-His recombinant protein (receptor)
chain: LEEKKVCQGTSNRLTQLGTFEDHFLSLQRMYNNCEVVLGNLEITYVQRNYDLSFLKTIQEVAGYVLIALNTVERIPLENLQIIRGNALYENTYALAILSNYGTNRTGLRELPMRNLQEILIGAVRFSNNPILCNMDTIQWRDIVQNVFMSNMSMDLQSHPSSCPKCDPSCPNGSCWGGGEENCQKLTKIICAQQCSHRCRGRSPSDCCHNQCAAGCTGPRESDCLVCQKFQDEATCKDTCPPLMLYNPTTYQMDVNPEGKYSFGATCVKKCPRNYVVTDHGSCVRACGPDYYEVEEDGIRKCKKCDGPCRKVCNGIGIGEFKDTLSINATNIKHFKYCTAISGDLHILPVAFKGDSFTRTPPLDPRELEILKTVKEITGFLLIQAWPDNWTDLHAFENLEIIRGRTKQHGQFSLAVVGLNITSLGLRSLKEISDGDVIISGNRNLCYANTINWKKLFGTPNQKTKIMNNRAEKDCKAVNHVCNPLCSSEGCWGPEPRDCVSCQNVSRGRECVEKCNILEGEPREFVENSECIQCHPECLPQAMNITCTGRGPDNCIQCAHYIDGPHCVKTCPAGIMGENNTLVWKYADANNVCHLCHANCTYGCAGPGLQGCEVWPSGPKIPS
- koff (HcAb.RR359.D107A): 0.00135 s⁻¹
- koff (HcAb.RR359.L110A): 0.00425 s⁻¹
